The results in this text go back to the supplement of paper PMC12455559.

± gives the standard deviation of the averaged measurements. A value given as a limit tells only on which side of the number the result lay.

A short description of data set [1]: PET hydrolysis, aromatic products released after 48 h (umol product/mg enzyme); higher = more PET depolymerization activity. The method, boiled down: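 Hydrolysis activity toward PET is reported as supernatant aromatic product per mg enzyme. To measure it, 5 μg (50 μL) of tagless enzyme was incubated with 3.5 mg amorphous PET film or crystalline PET powder in 450 μL buffer for 48 h at 40 or 60 °C in sealed, unshaken plates. The product was quantified by absorbance at 260 and 280 nm relative to buffer blanks.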

The nature of data set [2]: melting temperature (DSF); higher = more thermostable. The method, boiled down:
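Enzymes made in E. coli C41(DE3) were nickel-bead purified and cut free with SUMO protease before testing. Differential scanning fluorimetry gave each melting temperature. For this, 5 μL 5X Sypro Orange was added to 45 μL enzyme (0 to 0.3 mg/mL) in sealed PCR plates, and a Bio-Rad CFX96 read fluorescence from 25 °C over 250 cycles of 0.3 °C each, ramping at 0.3 °C/s.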

Data set [3] is described as follows: purified protein yield per well (BCA); higher = higher soluble expression. The method, boiled down:
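The measured quantity is purified protein yield per well, determined with the Pierce Rapid Gold BCA kit. Anything below 25 ug (0.1 mg/mL) lies under the detection threshold. Enzymes were expressed in E. coli C41(DE3) in 2 mL autoinduction cultures with 100 µg/mL kanamycin at 37 °C for 2 h, then 18 °C for 40 h, and purified on an OT-2 robot using Ni-charged magnetic beads and SUMO protease release.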

[4] abbreviates: substrate: aFilm, 40 °C, pH 4.5.
Where [5] appears, read: substrate: aFilm, 40 °C, pH 5.5.
[6] abbreviates: substrate: aFilm, 40 °C, pH 6.5.
Setting [7] is: substrate: aFilm, 40 °C, pH 7.5.
The mark [8] stands for this setting: substrate: aFilm, 60 °C, pH 4.5.
The mark [9] stands for this setting: substrate: aFilm, 60 °C, pH 5.5.
Setting [10] is: substrate: aFilm, 60 °C, pH 6.5.
Setting [11] is: substrate: aFilm, 60 °C, pH 7.5.
Where [12] appears, read: substrate: cryPow, 40 °C, pH 4.5.
Setting [13] is: substrate: cryPow, 40 °C, pH 5.5.
Setting [14] is: substrate: cryPow, 40 °C, pH 6.5.
The mark [15] stands for this setting: substrate: cryPow, 40 °C, pH 7.5.
[16] abbreviates: substrate: cryPow, 60 °C, pH 4.5.
[17] abbreviates: substrate: cryPow, 60 °C, pH 5.5.
Where [18] appears, read: substrate: cryPow, 60 °C, pH 6.5.
Where [19] appears, read: substrate: cryPow, 60 °C, pH 7.5.

On to “ADLLSQGRPVTASSTENASTPASAAVDGNTGTRWSSAFSDPQWLTVDLGTTATISRVVLRWETAYARRFQIQTSDDGTAWTTIHSATAGTGGVQTLDVTGSGRYVRVHGTQRGTAYGYSLWEFQVYGTRGTTPGEGIPDPSTASLEAAAGPLTTATYTVPDPSGYGSGTVTYPTAGGSYPGVVLMPGYQGTQQNLQWLAPRLASWGFVVLNVGTNTLTDDPASRGRQITAAGTQLLALGAATGNPLSGKVNGTLGAVGHSMGGGGVMAALRDDARFRAGVPTAPYYPNGNFSGVTDPTFFLTCQSDPVAHGNSYALPWYNSMSQSEKLYIEVPGDHLCPMTGSGDKAKQGKWIVSFLSHWLRADTRFTPFLCGPAREADKNDPSLVTRWMDTCPL [TEP036]”, for which the PET hydrolysis in data set [1] (setting [4]), in data set [1] (setting [5]), in data set [1] (setting [6]), in data set [1] (setting [7]), in data set [1] (setting [8]) and in data set [1] (setting [9]) was under 3 each time. Besides, the PET hydrolysis in data set [1] (setting [10]), in data set [1] (setting [11]), in data set [1] (setting [12]), in data set [1] (setting [13]), in data set [1] (setting [14]) and in data set [1] (setting [15]) was under 3 in each case. Also, the PET hydrolysis in data set [1] (setting [16]), in data set [1] (setting [17]), in data set [1] (setting [18]) and in data set [1] (setting [19]) was under 3 each time. In data set [2], this sequence had a melting temperature of 51.4 C. The “purified protein yield per well” value in data set [3] was found to be 230 µg.

Regarding “AGNPYERGPSPTAASIAADRGPFATAQVTVPRGNGFGGGVIYYPTDTSQGTFGAIAIAPGFNTAWSYYAWQGPRLASFGFVVIGIETNTLNDYADARATQLLAALDYLVNSSPVRDRVDRDRLAVGGHSMGGGGALLAATQRPSLLTAVGQAPYVPNGNLSGIKSPTIIFAGQADGTVTPQYAQNAYNTIPADVERAYVEIANEGHGFPAGGGGGNSGAFARTMMVWLKLFIDKDTRYAPFLCPTLSNANGISKYMASCPLDPPGGGPTASPTASPTATPSSTPTGPPPATSALKGVASGRCLDVNGASQANGAQAQIWDCNGQNNQQWTTTSAGELRVYGNKCLDVNGGSTADGTSVIIWDCNGQNNQKWRLNSDGTITAVGANKCLDVSGAGTANGTKTQIWTCHGGTNQKWTRV [DP092]”, the PET hydrolysis was under 3 in data set [1] (setting [5]); under 3 in data set [1] (setting [6]); under 3 in data set [1] (setting [7]); under 3 in data set [1] (substrate: aFilm, 40 °C, pH 8.5); under 3 in data set [1] (setting [9]); under 3 in data set [1] (setting [10]). For the same sequence, the PET hydrolysis in data set [1] (setting [11]) was under 3; in data set [1] (substrate: aFilm, 60 °C, pH 8.5), under 3; in data set [1] (setting [13]) it was 7 ± 1.4; in data set [1] (setting [14]) it was 13.5 ± 3.5; in data set [1] (setting [15]) it was 15; in data set [1] (substrate: cryPow, 40 °C, pH 8.5) it was 18.5 ± 2.1. Also, the PET hydrolysis in data set [1] (setting [17]) is under 3; in data set [1] (setting [18]), under 3; in data set [1] (setting [19]), under 3; in data set [1] (substrate: cryPow, 60 °C, pH 8.5) it was under 3. Further, the melting temperature in data set [2] was determined as 68.5 C. Moreover, the “purified protein yield per well” value in data set [3] amounted to 197 µg.

For the sequence “CVTPAPPPAPDVATVTVGAGNGFGGGTIYYPQGATGRLPVVAASPGFTENQNAVGWYGPLLAREGNIVITIDTNSPFDSPTSRADQLLAAIDYVVNRSSVASIADGSRTAVMGHSMGGGGSLEAALKRPGLKAIIPLAPWNTTTNFSGVRVPTLIVGCQNDAIAPVGSHAEPFYQSIPATTPKAYLEIAGGDHFCTNSENPTIANYVVAWTDRFLQGDTSASSRLCPPPPAGGSISEYRANCPY [ESM050]”, the PET hydrolysis is under 3 in data set [1] (setting [4]); 5 in data set [1] (setting [5]); 15.5 ± 0.71 in data set [1] (setting [6]); 7.5 ± 0.71 in data set [1] (setting [7]); 5 in data set [1] (setting [8]); 22.5 ± 5 in data set [1] (setting [9]). The PET hydrolysis stood at 15 ± 1.4 in data set [1] (setting [10]); 10.5 ± 0.71 in data set [1] (setting [11]); 13.5 ± 0.71 in data set [1] (setting [12]); 50.5 ± 11 in data set [1] (setting [13]); 84.5 ± 6.4 in data set [1] (setting [14]); 134 ± 8.5 in data set [1] (setting [15]). In addition, the PET hydrolysis turned out to be 40 ± 1.4 in data set [1] (setting [16]), 106 ± 2.1 in data set [1] (setting [17]), 132 ± 11 in data set [1] (setting [18]) and 140 ± 12 in data set [1] (setting [19]). The melting temperature in data set [2] stood at 82.3 C. Also, in data set [3], the “purified protein yield per well” value amounted to 236 µg.

Consider “ADNPYQRGPDPTVASVAATNGPFATAQLNVPSGNGFNGGTIYYPTDTSLGTWGAVAIVPGYTARFANEEAWMGPRLASFGFVVIGVETNSTTDWDTARGTQLLAALDYLTQKSSVRDRVDASRLAVIGHSMGGGGVVYAASQRPSLKAAIGLAPYAPSGNLSNVKVPMLIQGGQNDTVVTPSYLDGLYPTLPSSTPGAYVQYSGADHLFWTKANNIELRTQIPWLKIFLDNDTRYTQFMCPTLKDTASVAKYSAKCSLIPSAGSTTAPTTQPATSAPATTSPTTQPPSQPG [TEP083]”, for which the PET hydrolysis in data set [1] (setting [4]), in data set [1] (setting [5]), in data set [1] (setting [6]), in data set [1] (setting [7]), in data set [1] (setting [8]) and in data set [1] (setting [9]) was under 3 in each case. In addition, the PET hydrolysis is under 3 in data set [1] (setting [10]); under 3 in data set [1] (setting [11]); under 3 in data set [1] (setting [12]); 3 ± 4.2 in data set [1] (setting [13]); under 3 in data set [1] (setting [14]); under 3 in data set [1] (setting [15]). Also, the PET hydrolysis in data set [1] (setting [16]), in data set [1] (setting [17]), in data set [1] (setting [18]) and in data set [1] (setting [19]) was under 3 each time. The melting temperature in data set [2] is 64.3 C. For the same sequence, the “purified protein yield per well” value in data set [3] was 356 µg.
